Results: paper PMC10023571, “EGOC inhibits TOROID polymerization by structurally activating TORC1” (Nature Structural & Molecular Biology, 2023)

B1: Kog1 (Kog1-TAP) in the TOROID (natural protein, S. cerevisiae)
chain: MPEIYGPQPLKPLNTVMRHGFEEQYQSDQLLQSLANDFIFYFDDKRHKTNGNPIPEEDKQRDVNRYYQPITDWKIMKDRQKTVSAALLLCLNLGVDPPDVMKTHPCARVEAWVDPLNFQDSKKAIEQIGKNLQAQYETLSLRTRYKQSLDPCVEDVKRFCNSLRRTSKEDRILFHYNGHGVPKPTKSGEIWVFNRGYTQYIPVSLYDLQTWLGAPCIFVYDCNSAENILINFQKFVQKRIKDDEEGNHDVAAPSPTSAYQDCFQLASCTSDELLLMSPELPADLFSCCLTCPIEISIRIFLMQSPLKDSKYKIFFENSTSNQPFGDSKNSFKSKIPNVNIPGMLSDRRTPLGELNWIFTAITDTIAWTSLPRPLFKKLFRHDLMIAALFRNFLLAKRIMPWYNCHPVSDPELPDSITTHPMWKSWDLAMDEVLTKIVIDLKNAPPATALESQMILQQQETLQNGGSSKSNAQDTKAGSIQTQSRFAVANLSTMSLVNNPALQSRKSISLQSSQQQLQQQQQQQQQFTGFFEQNLTAFELWLKYASNVRHPPEQLPIVLQVLLSQVHRIRALVLLSRFLDLGPWAVYLSLSIGIFPYVLKLLQSPAPELKPILVFIWARIMSIDYKNTQSELIKEKGYMYFVTVLVPDWGVNGMSATNGSAMINSGNPLTMTASQNINGPSSRYYERQQGNRTSNLGHNNLPFYHSNDTTDEQKAMAVFVLASFVRNFPLGQKNCFSLELVNKLCFYIDNSEIPLLRQWCVILLGLLFADNPLNRFVCMNTGAVEILLKSLKDPVPEVRTASIFALKHFISGFQDAEVILRLQQEFEEQYQQLHSQLQHLQNQSHLQQQQSQQQQQHLEQQQMKIEKQIRHCQVMQNQLEVIDLRKLKRQEIGNLISILPLINDGSSLVRKELVVYFSHIVSRYSNFFIVVVFNDLLEEIKLLEKSDINTRNTSDKYSVSQGSIFYTVWKSLLILAEDPFLENKELSKQVIDYILLELSAHKELGGPFAVMEKFLLKRSSKAHQTGKFGFNSSQVQFVKSSLRSFSPNERVDNNAFKKEQQQHDPKISHPMRTSLAKLFQSLGFSESNSDSDTQSSNTSMKSHTSKKGPSGLYLLNGNNNIYPTAETPRFRKHTEPLQLPLNSSFLDYSREYFQEPQMKKQEADEPGSVEYNARLWRRNRNETIIQETQGEKKLSIYGNWSKKLISLNNKSQPKLMKFAQFEDQLITADDRSTITVFDWEKGKTLSKFSNGTPFGTKVTDLKLINEDDSALLLTGSSDGVIKIYRDYQDVDTFKIVSAWRGLTDMLLTPRSTGLLTEWLQIRGSLLTTGDVKVIRVWDAHTETVEVDIPAKTSSLITSLTADQLAGNIFVAGFADGSLRVYDRRLDPRDSMIRRWRAGNDKQGVWINNVHLQRGGYRELVSGATNGVVELWDIRSEDPVESFVDQNVTSQYGSQQKPTTMTCMQVHEHAPIIATGTKQIKIWTTSGDLLNSFKNSHNNGVTSTLAATGIPKSLSYSSTSDAFLSSMAFHPHRMMIAATNSHDSIVNIYKCEDERIDYF
notes: Kog1, S. cerevisiae, expressed as KOG1-TAP; source: S. cerevisiae KOG1-TAP ∆tor1 cells grown PDS, purified as TOROID
B2: Lst8 in the TOROID (natural protein, UniProt P41318 1-303, looked up)
chain: MSVILVSAGYDHTIRFWEALTGVCSRTIQHSDSQVNRLEITNDKKLLATAGHQNVRLYDIRTTNPNPVASFEGHRGNVTSVSFQQDNRWMVTSSEDGTIKVWDVRSPSIPRNYKHNAPVNEVVIHPNQGELISCDRDGNIRIWDLGENQCTHQLTPEDDTSLQSLSMASDGSMLAAANTKGNCYVWEMPNHTDASHLKPVTKFRAHSTYITRILLSSDVKHLATCSADHTARVWSIDDDFKLETTLDGHQRWVWDCAFSADSAYLVTASSDHYVRLWDLSTREIVRQYGGHHKGAVCVALNDV
notes: Lst8, S. cerevisiae; source: S. cerevisiae KOG1-TAP ∆tor1 cells grown PDS, purified as TOROID

Tests used:
Assay in all cases: cryo-EM structure; TOROID filaments purified from KOG1-TAP ∆tor1 cells grown PDS (subunits co-purified from yeast); helical reconstruction, then signal subtraction and single particle analysis, 3.87 Å
[1] = molecular target: the molecule itself
Tor2 in the TOROID = molecular target: T1, Tor2 in the TOROID (S. cerevisiae (endogenous in S. …, UniProt P32600 1-2474)); conditions: both partners purified
T1 construct: Tor2, S. cerevisiae; source: S. cerevisiae KOG1-TAP ∆tor1 cells grown PDS, purified as TOROID

[2] = molecular target: B1; conditions: both partners purified

T1 sequence (P32600 whole entry): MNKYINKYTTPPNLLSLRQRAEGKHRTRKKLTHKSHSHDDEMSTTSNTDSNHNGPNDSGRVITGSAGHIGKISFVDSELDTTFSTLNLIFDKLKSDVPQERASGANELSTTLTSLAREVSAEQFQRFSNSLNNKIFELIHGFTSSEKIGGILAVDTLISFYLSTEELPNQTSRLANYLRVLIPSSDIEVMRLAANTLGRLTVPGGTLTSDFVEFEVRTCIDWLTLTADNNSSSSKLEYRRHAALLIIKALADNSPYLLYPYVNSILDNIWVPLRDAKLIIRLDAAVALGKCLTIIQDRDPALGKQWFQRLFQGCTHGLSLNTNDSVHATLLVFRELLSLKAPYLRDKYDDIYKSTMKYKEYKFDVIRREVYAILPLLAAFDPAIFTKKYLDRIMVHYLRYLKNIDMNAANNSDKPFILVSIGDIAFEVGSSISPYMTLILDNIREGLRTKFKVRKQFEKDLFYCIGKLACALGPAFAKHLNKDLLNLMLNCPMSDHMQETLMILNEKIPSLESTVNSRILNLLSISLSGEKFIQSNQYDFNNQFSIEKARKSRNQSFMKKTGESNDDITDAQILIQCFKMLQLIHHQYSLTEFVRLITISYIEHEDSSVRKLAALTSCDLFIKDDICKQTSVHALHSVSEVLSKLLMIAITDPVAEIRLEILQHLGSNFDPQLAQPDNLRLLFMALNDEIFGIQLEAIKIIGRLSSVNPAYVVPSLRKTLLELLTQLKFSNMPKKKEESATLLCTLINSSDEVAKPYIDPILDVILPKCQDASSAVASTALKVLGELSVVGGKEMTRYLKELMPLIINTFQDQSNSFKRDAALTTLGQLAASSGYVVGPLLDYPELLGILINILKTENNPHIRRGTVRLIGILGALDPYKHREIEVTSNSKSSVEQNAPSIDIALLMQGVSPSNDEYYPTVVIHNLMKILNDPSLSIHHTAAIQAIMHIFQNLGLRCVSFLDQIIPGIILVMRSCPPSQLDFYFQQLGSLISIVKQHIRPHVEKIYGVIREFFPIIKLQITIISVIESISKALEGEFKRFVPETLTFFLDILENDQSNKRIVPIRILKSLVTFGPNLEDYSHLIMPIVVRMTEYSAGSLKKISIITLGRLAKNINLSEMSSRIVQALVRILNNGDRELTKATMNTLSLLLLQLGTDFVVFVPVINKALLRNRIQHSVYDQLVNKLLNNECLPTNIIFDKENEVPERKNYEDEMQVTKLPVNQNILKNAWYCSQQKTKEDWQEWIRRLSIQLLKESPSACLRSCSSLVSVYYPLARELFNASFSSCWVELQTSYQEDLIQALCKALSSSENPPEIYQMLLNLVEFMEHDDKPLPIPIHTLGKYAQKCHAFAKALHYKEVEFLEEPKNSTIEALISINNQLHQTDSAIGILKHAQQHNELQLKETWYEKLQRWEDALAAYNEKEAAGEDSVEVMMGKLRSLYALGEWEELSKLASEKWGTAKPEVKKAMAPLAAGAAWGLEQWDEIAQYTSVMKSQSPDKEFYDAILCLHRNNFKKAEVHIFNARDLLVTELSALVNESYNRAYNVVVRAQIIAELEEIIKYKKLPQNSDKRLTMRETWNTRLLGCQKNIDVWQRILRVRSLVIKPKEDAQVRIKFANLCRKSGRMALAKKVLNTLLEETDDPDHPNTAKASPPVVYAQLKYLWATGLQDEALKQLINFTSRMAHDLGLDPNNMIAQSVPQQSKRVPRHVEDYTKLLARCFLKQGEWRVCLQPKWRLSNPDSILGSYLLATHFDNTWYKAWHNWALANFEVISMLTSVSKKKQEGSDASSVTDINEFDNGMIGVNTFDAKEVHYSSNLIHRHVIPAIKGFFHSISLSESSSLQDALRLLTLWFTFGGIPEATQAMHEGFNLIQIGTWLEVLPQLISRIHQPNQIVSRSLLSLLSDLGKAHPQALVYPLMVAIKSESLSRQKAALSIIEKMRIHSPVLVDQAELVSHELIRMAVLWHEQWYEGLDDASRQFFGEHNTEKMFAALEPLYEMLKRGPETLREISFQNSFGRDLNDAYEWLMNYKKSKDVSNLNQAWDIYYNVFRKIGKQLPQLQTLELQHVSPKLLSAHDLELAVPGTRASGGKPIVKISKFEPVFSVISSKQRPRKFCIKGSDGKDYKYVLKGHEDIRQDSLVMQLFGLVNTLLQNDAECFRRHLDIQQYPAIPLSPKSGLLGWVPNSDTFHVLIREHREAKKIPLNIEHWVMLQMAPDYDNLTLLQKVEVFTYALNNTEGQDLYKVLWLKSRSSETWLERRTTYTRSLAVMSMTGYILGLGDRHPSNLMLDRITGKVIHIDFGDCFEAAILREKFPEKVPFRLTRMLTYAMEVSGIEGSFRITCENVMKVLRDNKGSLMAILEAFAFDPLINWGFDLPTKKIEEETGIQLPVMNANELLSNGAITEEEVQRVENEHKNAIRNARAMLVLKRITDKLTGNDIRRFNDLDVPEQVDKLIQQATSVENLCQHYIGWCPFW

| Binder | binding result [1] | binding result (Tor2 in the TOROID) | binding result [2] |
| --- | --- | --- | --- |
| B1 | binds | binds |  |
| B2 |  | binds | binds |
